We go through one molecule from publication PMC8924211 (Nature Communications, 2022).

Residue numbers refer to the chain shown, from its start.

In general, Kd refers to the concentration at which binding is half-saturated.

Assay in all cases: AlphaScreen or HTRF; saturation binding: HEK293 cells transfected with SNAP-tagged receptor (WT or mutant) and labelled with SNAP-Lumi4-Tb, incubated with increasing concentrations of galanin-A2 in the presence or absence of 100 uM unlabeled galanin, 1 h at room temperature; HTRF ratio 665 nm/620 nm
Holding throughout (conditions): one partner purified
(In general: Bead proximity is the source of the signal in Alpha formats.)

One assay addresses T1, SNAP-GAL1R W260^6.48A (human, UniProt P47211 1-349, W260^6.48A, Lumi4-Tb on the SNAP tag).
T1 construct: also called W260A; source: HEK293, transfected, on cells; not shown: SNAP tag, N-terminal, kept
T1 sequence (looked up): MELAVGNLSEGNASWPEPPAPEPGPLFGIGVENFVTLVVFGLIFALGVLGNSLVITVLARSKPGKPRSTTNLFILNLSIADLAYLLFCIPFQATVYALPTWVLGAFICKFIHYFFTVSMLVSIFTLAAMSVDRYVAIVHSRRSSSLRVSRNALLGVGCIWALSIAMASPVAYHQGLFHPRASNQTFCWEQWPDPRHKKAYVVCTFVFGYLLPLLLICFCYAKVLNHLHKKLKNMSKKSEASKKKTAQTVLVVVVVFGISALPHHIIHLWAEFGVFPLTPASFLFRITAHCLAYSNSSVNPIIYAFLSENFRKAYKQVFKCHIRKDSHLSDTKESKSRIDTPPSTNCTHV

The target of assay [1] is T2, N-terminal-SNAP-tagged GAL1R, wild type (human, UniProt P47211 1-349, Lumi4-Tb on the SNAP tag).
T2 construct: also called SNAP-GAL1R; GAL1R WT; source: HEK293, transfected, on cells; not shown: SNAP tag, N-terminal, kept
T2 sequence (looked up): T1 sequence (looked up) with A260W

The next assay addresses T3, SNAP-GAL1R H112^3.29A (human, UniProt P47211 1-349, H112^3.29A, Lumi4-Tb on the SNAP tag).
T3 construct: also called H112A; source: HEK293, transfected, on cells; not shown: SNAP tag, N-terminal, kept
T3 sequence (looked up): T1 sequence (looked up) with H112A, A260W

In the next assay the target is T4, SNAP-GAL1R Q174^4.64A (human, UniProt P47211 1-349, Q174^4.64A, Lumi4-Tb on the SNAP tag).
T4 construct: also called Q174A; source: HEK293, transfected, on cells; not shown: SNAP tag, N-terminal, kept
T4 sequence (looked up): T1 sequence (looked up) with Q174A, A260W

The next assay has as its target T5, SNAP-GAL1R I266^6.54A (human, UniProt P47211 1-349, I266^6.54A, Lumi4-Tb on the SNAP tag).
T5 construct: also called I266A; source: HEK293, transfected, on cells; not shown: SNAP tag, N-terminal, kept
T5 sequence (looked up): T1 sequence (looked up) with A260W, I266A

B1: galanin-A2 (full-length galanin labeled with the dye A2 on an additional cysteine at the C-terminal end) (peptide)
peptide: GWTLNSAGYLLGPHAVGNHRSFSDKNGLTSC
modifications: dye A2 on the additional C-terminal cysteine
notes: numbers count on: the mature protein; additional cysteine at the C-terminal end of the peptide, carries the dye A2; source: synthetic peptide (synthesized by Vazyme, China)
On to B1, for which the dissociation constant (Kd) in the assay with SNAP-GAL1R W260^6.48A stood at 51.2 nM; in assay [1], 22.2 nM; with SNAP-GAL1R H112^3.29A it was 59.8 nM; with SNAP-GAL1R Q174^4.64A it was 351 nM; in the assay with SNAP-GAL1R I266^6.54A it was 245 nM.
